Results: US20110020347A1

Biological target: mouse CXCL14 (R&D Systems) (mouse) (UniProt Q9WUQ5)
Experiment: cell-based or functional assay

Chain of UniProt Q9WUQ5 (Q9WUQ5 23-99): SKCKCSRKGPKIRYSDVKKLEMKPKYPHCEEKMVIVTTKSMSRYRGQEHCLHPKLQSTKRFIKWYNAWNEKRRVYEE

rat anti-mouse CXCL14 monoclonal antibody (MAB730, R&D Systems)
inhibition of attraction (chemotaxis) of forskolin-stimulated C2C12 cells by mouse CXCL14, antibody at 10 µg/ml, CXCL14 at 100 nM: 54%
